From article PMC2659761 (Journal of molecular biology, 2008)

T1: Cif full-length (cycle inhibiting factor) (Escherichia coli (EPEC and EHEC)), P0DUW5
T1 chain: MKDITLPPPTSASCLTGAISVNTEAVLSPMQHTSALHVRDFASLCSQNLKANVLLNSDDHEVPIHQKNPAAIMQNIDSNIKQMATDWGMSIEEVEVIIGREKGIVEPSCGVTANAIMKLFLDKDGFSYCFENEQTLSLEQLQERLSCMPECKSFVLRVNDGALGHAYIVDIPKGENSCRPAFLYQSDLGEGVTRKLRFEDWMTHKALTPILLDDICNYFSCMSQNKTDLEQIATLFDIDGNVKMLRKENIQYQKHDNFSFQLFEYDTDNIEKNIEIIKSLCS

B1: Cif(100-282)-His, cycle inhibiting factor residues 100-282 with C-terminal His6 tag (the crystallized construct) (domain or fragment)
chain: REKGIVEPSCGVTANAIMKLFLDKDGFSYCFENEQTLSLEQLQERLSCMPECKSFVLRVNDGALGHAYIVDIPKGENSCRPAFLYQSDLGEGVTRKLRFEDWMTHKALTPILLDDICNYFSCMSQNKTDLEQIATLFDIDGNVKMLRKENIQYQKHDNFSFQLFEYDTDNIEKNIEIIKSLCS
B2: Cif full-length (cycle inhibiting factor), P0DUW5 1-282 (natural protein)
chain: MKDITLPPPTSASCLTGAISVNTEAVLSPMQHTSALHVRDFASLCSQNLKANVLLNSDDHEVPIHQKNPAAIMQNIDSNIKQMATDWGMSIEEVEVIIGREKGIVEPSCGVTANAIMKLFLDKDGFSYCFENEQTLSLEQLQERLSCMPECKSFVLRVNDGALGHAYIVDIPKGENSCRPAFLYQSDLGEGVTRKLRFEDWMTHKALTPILLDDICNYFSCMSQNKTDLEQIATLFDIDGNVKMLRKENIQYQKHDNFSFQLFEYDTDNIEKNIEIIKSLCS

Key:
[1] = molecular target: the molecule itself; assay: SEC
[2] = molecular target: T1, Cif full-length (cycle inhibiting …); assay: SEC; settings: remark: other sources report otherwise

Row | Binder | stoichiometry N [1] | stoichiometry N [2]
1 | B1 | 2 | 
2 | B2 |  | 2
